Blank lines part the entries; values can stand above or below the substance they belong to.
Legend:
[1] = molecular target: RAMP1 ECD-CTR ECD fusion protein (human) (UniProt O60894); experiment: fluorescence polarisation
[2] = molecular target: calcitonin receptor (CTR) extracellular domain (ECD) (human); experiment: fluorescence polarisation
[3] = molecular target: RAMP3 ECD-CTR ECD fusion protein (human) (UniProt O60896); experiment: fluorescence polarisation
[4] = molecular target: RAMP2 ECD-CTR ECD fusion protein (human) (UniProt O60895); experiment: fluorescence polarisation
Chain of UniProt O60895 (O60895 whole entry, looked up, the tested form may be a part): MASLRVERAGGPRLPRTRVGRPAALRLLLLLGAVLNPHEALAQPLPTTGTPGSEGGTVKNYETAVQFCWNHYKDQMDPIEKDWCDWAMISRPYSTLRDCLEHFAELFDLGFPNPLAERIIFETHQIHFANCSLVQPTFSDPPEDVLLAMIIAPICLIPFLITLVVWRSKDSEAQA

[5] = molecular target: full-length human calcitonin receptor C-terminally tagged with NanoLuc luciferase (human) (UniProt P30988)
Chain of UniProt P30988 (P30988 25-474): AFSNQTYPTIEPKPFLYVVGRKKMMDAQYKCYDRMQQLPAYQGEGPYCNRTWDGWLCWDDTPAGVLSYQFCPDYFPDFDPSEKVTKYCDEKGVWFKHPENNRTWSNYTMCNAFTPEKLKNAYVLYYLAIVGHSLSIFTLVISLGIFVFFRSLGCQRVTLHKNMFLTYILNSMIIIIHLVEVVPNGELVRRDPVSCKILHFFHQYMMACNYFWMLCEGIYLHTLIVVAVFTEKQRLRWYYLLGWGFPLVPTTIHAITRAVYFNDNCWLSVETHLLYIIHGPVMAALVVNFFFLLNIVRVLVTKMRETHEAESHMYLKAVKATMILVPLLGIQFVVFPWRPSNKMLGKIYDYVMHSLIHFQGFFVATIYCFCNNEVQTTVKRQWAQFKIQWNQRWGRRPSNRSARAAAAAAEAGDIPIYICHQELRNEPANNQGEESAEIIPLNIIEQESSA

amylin receptor ECDs = experiment: fluorescence polarisation

Chain of UniProt O60894 (O60894 whole entry, the tested form may be a part): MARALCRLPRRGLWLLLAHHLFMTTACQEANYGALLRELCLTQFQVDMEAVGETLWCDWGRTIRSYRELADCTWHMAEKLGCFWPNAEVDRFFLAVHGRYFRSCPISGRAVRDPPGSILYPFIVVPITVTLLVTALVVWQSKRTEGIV
Chain of UniProt O60896 (O60896 whole entry, the tested form may be a part): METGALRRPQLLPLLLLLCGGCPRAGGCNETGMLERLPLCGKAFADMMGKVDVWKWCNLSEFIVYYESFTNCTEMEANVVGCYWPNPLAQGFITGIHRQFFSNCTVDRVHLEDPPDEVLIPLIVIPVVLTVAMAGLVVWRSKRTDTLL

Substance: rat amylin(27–37) L27Y/Y37P plus S34HYP (hydroxyproline) (peptide)
fold decrease in affinity against the peptide with S34P [1]: 9 fold

Substance: rat amylin(27–37) L27Y/Y37P plus P29K (peptide)
fold increase in affinity over rat amylin(27–37) L27Y/Y37P [1]: 4 fold

Substance: FITC-labeled salmon calcitonin (sCT) fragment(22–32) (peptide)
Kd [2]: 500 nM

Substance: FITC-labeled AC413(6–25) with Y25P mutation (peptide)
Kd [3]: 252 nM
Kd [4]: 67 nM
Kd [1]: 77 nM

Substance: rat amylin(27–37) with Y37HYP (hydroxyproline) mutation (peptide)
fold increase in affinity over rat amylin(27–37) Y37P [3]: 3 fold
fold increase in affinity over rat amylin(27–37) Y37P [1]: 5 fold

Substance: pramlintide (peptide)
EC50 of receptor activation (mini-Gs recruitment BRET, HEK293T cells) [5]: 72 nM

Substance: rat amylin(27–37) L27Y/Y37P plus P29R (peptide)
fold increase in affinity over rat amylin(27–37) L27Y/Y37P [1]: 4 fold

The remaining lines, values ahead:

fold increase in affinity over rat amylin(27–37) L27Y/Y37P [1]: 3.6 fold
Substance: rat amylin(27–37) L27Y/Y37P plus S34P (peptide)

fold increase in affinity over rat amylin(27–37) L27Y/Y37P [1]: 2.5 fold
Substance: rat amylin(27–37) L27Y/Y37P plus S34A (peptide)

fold increase in affinity over rat amylin(27–37) L27Y/Y37P [1]: 2 fold
Substance: rat amylin(27–37) L27W/Y37P (peptide)

Ki (amylin receptor ECDs): 4000 to 11000 nM
Substance: rat amylin(27–37) with L27Y and Y37P double mutations (peptide)
